Measurements from patent US20090208994A1, “GENETIC INCORPORATION OF 3-AMINOTYROSINE INTO REDUCTASES” (THE SCRIPPS RESEARCH INSTITUTE, priority 2007, published 2009).
One block for each molecule: values may come before it.

How the values were obtained:
[1] = biological target: T1, E. coli ribonucleotide reductase (α2β2 complex) (Escherichia coli, UniProt P00452); settings: previous studies; inactivation of wt α2β2 by N3ADP/dGTP; 20 s time scale; cited from earlier work
T1 construct: made in house; host or cells: E. coli DH10B for the NH2Y-α2s

[2] = pH 7; cited from earlier work
[3] = test system: DH10B E. coli cells; assay: Toxicity of NH2Y: growth in liquid GMML medium and on agar plates; assay type: cell-based
Source text: Toxicity and uptake of NH2Y. Evolution of an NH2Y-specific aminoacyl-tRNA synthetase (RS) requires that NH2Y is taken up by E. coli, that it is not toxic, and that it is not incorporated into proteins by any endogenous RSs. All three requirements were met by NH2Y. […] The presence of DTT however, caused cells to grow at a rate 25-35% more slowly than those in the presence of only NH2Y or absence of NH2Y/DTT.

[4] = biological target: T2, wt β2, P69924
T2 chain: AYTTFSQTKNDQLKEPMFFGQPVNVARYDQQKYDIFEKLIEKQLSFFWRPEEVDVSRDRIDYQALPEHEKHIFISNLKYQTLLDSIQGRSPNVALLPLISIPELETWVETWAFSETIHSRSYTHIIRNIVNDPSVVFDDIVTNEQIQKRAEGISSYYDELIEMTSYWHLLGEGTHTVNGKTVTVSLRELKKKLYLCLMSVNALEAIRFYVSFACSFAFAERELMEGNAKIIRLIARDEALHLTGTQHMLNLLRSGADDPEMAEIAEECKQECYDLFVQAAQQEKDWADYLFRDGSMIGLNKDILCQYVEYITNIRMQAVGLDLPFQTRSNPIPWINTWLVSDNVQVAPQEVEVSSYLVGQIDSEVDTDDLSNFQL

[5] = biological target: wt β2 (E. coli) (UniProt P69924); assay: cell-based or functional assay

Molecule: [N-]=[N+]=N[C@@H]1[C@H](O)[C@@H](COP(=O)(O)OP(=O)(O)O)O[C@H]1n1cnc2c(N)ncnc21 [N3ADP, 2′-Azido-2′-deoxyadenosine-5′-diphosphate]
initial Y122• lost (forming an equivalent amount of N•) [1]: 50-60%

Molecule: N[C@@H](Cc1ccc(O)c(O)c1)C(=O)O [DOPA, 3,4-dihydroxyphenylalanine]
reduction potential lower than that of Y [2]: 260 mV

Molecule: O[C@H](CS)[C@H](O)CS (racemic) [DTT, DL-dithiothreitol]
cells grow more slowly (rate) ([3]; presence of DTT (0.1 mM) vs. only NH2Y or absence of NH2Y/DTT): 25-35%

Molecule: Nc1cc(C[C@H](N)C(=O)O)ccc1O [NH2Y, 3-aminotyrosine]
effect on growth rates ([3]; NH2Y (1 mM) or NH2Y/DTT in GMML medium and agar plates): not significantly affected

B1: Y730NH2Y-α2 (protein)
chain: MNQNLLVTKRDGSTERINLDKIHRVLDWAAEGLHNVSISQVELRSHIQFYDGIKTSDIHETIIKAAADLISRDAPDYQYLAARLAIFHLRKKAYGQFEPPALYDHVVKMVEMGKYDNHLLEDYTEEEFKQMDTFIDHDRDMTFSYAAVKQLEGKYLVQNRVTGEIYESAQFLYILVAACLFSNYPRETRLQYVKRFYDAVSTFKISLPTPIMSGVRTPTRQFSSCVLIECGDSLDSINATSSAIVKYVSQRAGIGINAGRIRALGSPIRGGEAFHTGCIPFYKHFQTAVKSCSQGGVRGGAATLFYPMWHLEVESLLVLKNNRGVEGNRVRHMDYGVQINKLMYTRLLKGEDITLFSPSDVPGLYDAFFADQEEFERLYTKYEKDDSIRKQRVKAVELFSLMMQERASTGRIYIQNVDHCNTHSPFDPAIAPVRQSNLCLEIALPTKPLNDVNDENGEIALCTLSAFNLGAINNLDELEELAILAVRALDALLDYQDYPIPAAKRGAMGRRTLGIGVINFAYYLAKHGKRYSDGSANNLTHKTFEAIQYYLLKASNELAKEQGACPWFNETTYAKGILPIDTYKKDLDTIANEPLHYDWEALRESIKTHGLRNSTLSALMPSETSSQISNATNGIEPPRGYVSIKASKDGILRQVVPDYEHLHDAYELLWEMPGNDGYLQLVGIMQKFIDQSISANTNYDPSRFPSGKVPMQQLLKDLLTAYKFGVKTLYYQNTRDGAEDAQDDLVPSIQDDGCESGACKI
kobs / Ampl, 1st phase, without CDP/ATP [4]: No changes observed.
kobs / Ampl, 2nd phase, without CDP/ATP [4]: No changes observed.
rate constant of formation of NH2Y• at 325 nm (fast phase) [4]: 13.6 ± 0.1 s⁻¹
rate constant of formation of NH2Y• at 325 nm (slow phase) [4]: 2.5 ± 0.1 s⁻¹
rate constant of loss of Y122• at 410 nm (fast phase) [4]: 12.0 ± 0.1 s⁻¹
rate constant of loss of Y122• at 410 nm (slow phase) [4]: 2.4 ± 0.1 s⁻¹
kobs, 1st phase (stopped-flow UV-vis, Y122• loss / NH2Y730• formation, with CDP/ATP) ([4]; in 1/s): 12.8 ± 0.8, 20 ± 1
kobs, 2nd phase (stopped-flow UV-vis, Y122• loss / NH2Y730• formation, with CDP/ATP) ([4]; in 1/s): 2.5 ± 0.1, 19 ± 1

Ampl, 1st phase (% of total initial Y122• trapped, with CDP/ATP) [5]: 20%
Ampl, 2nd phase (% of total initial Y122• trapped, with CDP/ATP) [5]: 19%
EPR spin quantitation at 10 s: share of remaining spin in the new signal (NH2Y730•), with CDP/ATP [5]: 53%
total initial Y122• consumed at 2 s [5]: 39%
B2: Y730NH2Y-α2 (enzyme, E. coli, UniProt P00452 1-761, looked up)
chain: B1 chain
modifications: 3-aminotyrosine (NH2Y) in place of Tyr at 730 (E. coli RNR numbering)

Ampl, 1st phase (% of total initial Y122• trapped, with CDP/ATP) [5]: 24%
Ampl, 2nd phase (% of total initial Y122• trapped, with CDP/ATP) [5]: 11%
EPR spin quantitation at 10 s: share of remaining spin associated with NH2Y731•, with CDP/ATP [5]: 45%
total initial Y122• consumed at 2 s [5]: 35%
B3: Y731NH2Y-α2 (enzyme, E. coli, UniProt P00452 1-761, looked up)
chain: B1 chain
modifications: 3-aminotyrosine (NH2Y) in place of Tyr at 731 (E. coli RNR numbering)
